From patent US20230140200A1, “COMPOSITIONS AND METHODS FOR DETECTING CELLS UNDERGOING FERROPTOSIS USING AN ANTIBODY” (THE TRUSTEES OF COLUMBIA UNIVERSITY IN THE CITY OF NEW YORK, priority 2020, published 2023)
“Also recorded” adds a separate entry of the source.

How the values were obtained:
[1] = test system: HCC mouse xenograft tumor tissue (Huh-7 cells); test: Staining of hepatocellular carcinoma (HCC) mouse xenograft tumor tissue sections; details: 50 mg/kg IKE once daily IP for 2 days
Experimental: Tumor tissues were fixed in 4% paraformaldehyde (PFA) for 24 h at 4° C. followed by washing with PBS three times. The tissues were perfused in 30% sucrose for 24 h at 4° C. for cryo-protection. The samples were embedded in OCT cryostat sectioning medium, and then moved directly into a cryostat. After equilibration of temperature, frozen tumor tissues were cut into 5 μm thick sections. Tissue sections were mounted on to poly-L-lysine coated slides by placing the cold sections onto warm slides. Slides were stored at −80° C. until staining. For staining, slides were warmed to room temperature followed by washing with PBS twice. A hydrophobic barrier pen was used to draw a circle on each slide. The slides were permeabilized with PBS with 0.4% Triton X-100 (PBT) twice before non-specific-binding blocking by incubating the sections with 10% goat serum (ThermoFisher 50197Z) for 30 min at room temperature. […] All images were captured on a Zeiss LSM 800 confocal microscope at Plan-Apochromat 63×/1.40 Oil DIC objective with constant laser intensity for all analyzed samples. The intensity above threshold of the fluorescent signal of the bound antibodies was analyzed using NIH ImageJ software (ImageJ, RRID:SCR_003070). Data were expressed as fold change comparing with the vehicle. […]

[2] = test system: TfR1; test: Western blot of TfR1 during ferroptosis; type: cell-based, human; details: RSL3-induced and IKE-induced ferroptosis, HT-1080 cells
Experimental: HT-1080 cells were seeded in DMEM (Corning 10-013-CM) and 10% Hi-FBS with 1% penicillin and streptomycin (PS) with 1% MEM Non-Essential Amino Acids Solution (100×) (Thermo Fisher Scientific 11140-076) 16 h prior to use. DMSO or 1 μM of RSL3 was added and incubated for 4 h. Following treatment, the medium was aspirated from each dish and cells were washed twice with PBS. Cells were lysed with 70 μl lysis buffer (RIPA buffer from ThermoFisher, cat. 89900, 1 mM EDTA, 1 mM PMSF, 1× Halt™ protease inhibitor cocktail from ThermoFisher, cat. 78430 and 1× Halt™ phosphatase inhibitor cocktail from ThermoFisher, cat. 78426). Unlysed cells and debris were pelleted for 15 min at 16,000×g at 4° C. Samples were separated using SDS-PAGE and transferred to a polyvinylidene difluoride membrane. Transfer was performed using the iBlot2 system (Invitrogen). […]

B1: 3F3-FMA: Murine monoclonal IgG1 raised against ferroptotic membrane fractions; antigen is transferrin receptor protein 1 (TfR1) (antibody, V domains shown)
VH: EVLLQQSGTELVRPGALVKLSCKASGFNIQDLYIHWVKQRPEQGLEWIGWIDPETDNTIYDPKFQGKASITADTSSNTAYLQLSSLTSEDTAMYYCSTGLLQWYFDVWGAGTAVTVSS
VL: DIVMTQSPSSLAMSIGQKVTMRCKSSQSLLNSYNQKNCLAWYQQKPGQSPKLLLYFVSTRESGVPDRFIGSGSGTDFTLTISSVQAEDLADYFCQQHYSTPLTFGAGTKLELK
antibody staining intensity in IKE-treated vs vehicle tumor tissue [1]: increased intensities; also recorded: difference in intensities
intensity of western blot bands during ferroptosis [2]: increased intensity of the bands
